Experimental data taken from patent US20190264213A1 (YEDA RESEARCH AND DEVELOPMENT, published 2019).

B1: phi3T AimR receptor with C-terminal 6xHis-tag (purified) (receptor)
chain: MIKNECEKDNQLAARLAKLAGYEKVNGFYKFVNTPEKEMENLGGLLKIVKNLFPDSEEQLLSEYFLELDPNKKCARQSVEYSDINQWDTLTDKIIINLCNSKNSTSQEWGKVYSLHRKLNKNEISLNDAIRESGKCKIKSAEMLFFSNAMLMYAYLNIGEFGLMKSTSKLLEFDDLPEGFIKESFKSRVSMLEANISLNENSLLEARQHSNRAIENSNVNRICFFAYLTIGNTLIFEDYDEAKKAYIKGQKYAKNPVHQEMLDGALCFLSNIWKKENQWVNYNSDNIKYLQLRAFYYINQGNIEEATEILDELSSRDQDENELGFYYYYKGLISQDKTDYYKSIRYFKKSDDKYFIQLPLLQLERMGADLELLNLISIHHHHHH
notes: Expressed in E. coli BL21(DE3) from pET28a and purified in two steps; Migrates as a homodimer in gel filtration without peptide and as a monomer with SAIRGA; also called His-tagged AimR; purified AimR
B2: GMPRGA peptide (spBeta arbitrium peptide, mature AimP) (peptide)
peptide: GMPRGA
notes: Synthetic peptide, 98% purity, desalted (Peptide 2.0 Inc.); also called spBeta-derived GMPRGA peptide

What was measured:
[1] = molecular target: the molecule itself; assay: analytical gel filtration (Superdex 200 Increase), self-association
Protocol: Pure AimR was injected to an analytical gel filtration column (Superdex_200_Increase_10/30 GL, GE Healthcare) equilibrated with buffer containing 20 mM Tris pH 8, 0.3 M NaCl, 2 mM TCEP. […] The column was calibrated (inset of FIG. 4C) by monitoring the migration positions of the following known proteins/polymers: blue dextran (2000 kDa), Thyroglobulin (669 kDa), Apoferritin (443 kDa), beta-amylase (200 kDa), alcohol dehydrogenase (150 kDa), Albumin (66 kDA) and Carbonic anhydrase (29 kDa).

[2] = molecular target: B1; assay: microscale thermophoresis (MST), label-free
Protocol: Two-step purified 6×His-tagged AimR stored in Tris/NaCl buffer (50 mM Tris pH 8.0, 150 mM NaCl, 2 mM TCEP) at −80° C. was thawed on ice and centrifuged at 21,000 g for 10 minutes at 4° C. prior to analysis. […] AimR was diluted to 200 nM and was incubated with 16 different peptide concentrations varying between 9-4000 nM, which were prepared in Tris/NaCl buffer containing 0.1% [v/v] Pluronic acid (NanoTemper). Roughly 3 μl were loaded into NT.LabelFree Zero-Background Premium Coated Capillaries (NanoTemper) and inserted into a Monolith NT.LabelFree device (NanoTemper). MST experiments were performed at 60% MST power (infra-red laser) and 20% LED power at 23° C. using the Monolith NT.LabelFree instrument (Nanotemper). Ratios between normalized initial fluorescence and post-temperature-jump and thermophoresis were calculated and averaged from 3 independent runs (runs were incubated for 20 minutes at room temperature before the measurement).

Row | Binder | binding result [1] | binding result [2]
1 | B1 | binds | 
2 | B2 |  | no binding (tested: peptide 9-4000 nM, AimR 200 nM)
